Source: paper PMC10397247

Assays:
[1] = molecular target: T1, APC222-AA; experiment: two-hybrid library CCmax;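 further: natural log of median RNA to DNA barcode read ratio; higher means stronger binding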
T1 chain: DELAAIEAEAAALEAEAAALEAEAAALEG

[2] = molecular target: T2, APC2257-AA; experiment: two-hybrid library CCmax; settings: mean of both orientations;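 further: natural log of median RNA to DNA barcode read ratio; higher means stronger binding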
T2 chain: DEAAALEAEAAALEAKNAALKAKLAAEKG

[3] = molecular target: T3, APC2375-AA; experiment: two-hybrid library CCmax; settings: mean of both orientations;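 further: natural log of median RNA to DNA barcode read ratio; higher means stronger binding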
T3 chain: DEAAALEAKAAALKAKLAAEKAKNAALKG

[4] = molecular target: T4, APC2474-AA; experiment: two-hybrid library CCmax;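 further: natural log of median RNA to DNA barcode read ratio; higher means stronger binding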
T4 chain: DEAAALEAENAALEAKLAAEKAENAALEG

[5] = molecular target: T5, APC2543-AA; experiment: two-hybrid library CCmax; settings: mean of both orientations
T5 chain: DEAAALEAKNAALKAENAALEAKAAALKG

[6] = molecular target: T6, APC2556-AA; experiment: two-hybrid library CCmax; settings: mean of both orientations
T6 chain: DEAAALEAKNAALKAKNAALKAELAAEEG

[7] = molecular target: T7, APC2724-AA; experiment: two-hybrid library CCmax; settings: mean of both orientations
T7 chain: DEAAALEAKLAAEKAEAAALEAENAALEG

[8] = molecular target: T8, APC2811-AA; experiment: two-hybrid library CCmax; settings: mean of both orientations
T8 chain: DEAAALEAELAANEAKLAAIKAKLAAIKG

[9] = molecular target: T9, APC2981-AA; experiment: two-hybrid library CCmax; settings: mean of both orientations
T9 chain: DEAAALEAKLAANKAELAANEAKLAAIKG

[10] = molecular target: T10, APC3265-AA; experiment: two-hybrid library CCmax; settings: mean of both orientations
T10 chain: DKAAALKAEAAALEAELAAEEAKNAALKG

[11] = molecular target: T11, APC3323-AA; experiment: two-hybrid library CCmax; settings: mean of both orientations
T11 chain: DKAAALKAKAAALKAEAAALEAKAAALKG

[12] = molecular target: T12, APC3354-AA; experiment: two-hybrid library CCmax; settings: mean of both orientations
T12 chain: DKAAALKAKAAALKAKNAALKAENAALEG

[13] = molecular target: T13, APC3881-AA; experiment: two-hybrid library CCmax; settings: mean of both orientations
T13 chain: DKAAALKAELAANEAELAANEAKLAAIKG

[14] = molecular target: T14, APC4100-AA; experiment: two-hybrid library CCmax; settings: mean of both orientations
T14 chain: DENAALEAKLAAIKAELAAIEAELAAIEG

[15] = molecular target: T15, APC4336-AA; experiment: two-hybrid library CCmax; settings: mean of both orientations
T15 chain: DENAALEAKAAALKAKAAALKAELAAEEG

[16] = molecular target: T16, APC5009-AA; experiment: two-hybrid library CCmax; settings: mean of both orientations
T16 chain: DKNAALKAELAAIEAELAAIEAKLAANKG

[17] = molecular target: T17, APC542-AA; experiment: two-hybrid library CCmax
T17 chain: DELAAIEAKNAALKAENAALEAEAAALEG

[18] = molecular target: T18, APC5531-AA; experiment: two-hybrid library CCmax
T18 chain: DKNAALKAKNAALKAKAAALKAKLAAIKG

[19] = molecular target: T19, APC6088-AA; experiment: two-hybrid library CCmax; settings: mean of both orientations
T19 chain: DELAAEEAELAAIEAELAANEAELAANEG

[20] = molecular target: T20, APC7524-AA; experiment: two-hybrid library CCmax; settings: mean of both orientations
T20 chain: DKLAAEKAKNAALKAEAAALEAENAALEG

[21] = molecular target: T21, APC8401-AA; experiment: two-hybrid library CCmax; settings: mean of both orientations
T21 chain: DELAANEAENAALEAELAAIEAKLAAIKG

[22] = molecular target: T22, APC8516-AA; experiment: two-hybrid library CCmax
T22 chain: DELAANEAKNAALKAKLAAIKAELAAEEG

[23] = molecular target: T23, APC9141-AA; experiment: two-hybrid library CCmax; settings: mean of both orientations
T23 chain: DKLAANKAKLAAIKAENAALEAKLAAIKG

[24] = molecular target: T24, APC9182-AA; experiment: two-hybrid library CCmax; settings: mean of both orientations
T24 chain: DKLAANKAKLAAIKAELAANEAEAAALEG

[25] = molecular target: T25, APC9291-AA; experiment: two-hybrid library CCmax; settings: mean of both orientations
T25 chain: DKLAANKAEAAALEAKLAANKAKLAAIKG

[26] = molecular target: T26, APC9806-AA; experiment: two-hybrid library CCmax; settings: mean of both orientations
T26 chain: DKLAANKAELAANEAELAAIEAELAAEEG

[27] = molecular target: T27, 4H1985-AA; experiment: two-hybrid library CCmax
T27 chain: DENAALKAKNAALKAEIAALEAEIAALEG

[28] = molecular target: T28, 4H2187-AA; experiment: two-hybrid library CCmax; settings: mean of both orientations
T28 chain: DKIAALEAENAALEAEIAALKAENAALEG

[29] = molecular target: T29, 4H233-AA; experiment: two-hybrid library CCmax; settings: mean of both orientations
T29 chain: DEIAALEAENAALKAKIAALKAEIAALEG

[30] = molecular target: T30, 4H2512-AA; experiment: two-hybrid library CCmax; settings: mean of both orientations
T30 chain: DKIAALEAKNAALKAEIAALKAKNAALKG

[31] = molecular target: T31, 4H2646-AA; experiment: two-hybrid library CCmax; settings: mean of both orientations
T31 chain: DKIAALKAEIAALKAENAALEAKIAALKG

[32] = molecular target: T32, 4H2687-AA; experiment: two-hybrid library CCmax; settings: mean of both orientations
T32 chain: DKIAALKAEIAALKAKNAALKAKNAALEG

[33] = molecular target: T33, 4H2705-AA; experiment: two-hybrid library CCmax; settings: mean of both orientations
T33 chain: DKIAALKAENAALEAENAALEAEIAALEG

[34] = molecular target: T34, 4H2758-AA; experiment: two-hybrid library CCmax; settings: mean of both orientations
T34 chain: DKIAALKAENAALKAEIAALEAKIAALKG

[35] = molecular target: T35, 4H278-AA; experiment: two-hybrid library CCmax; settings: mean of both orientations
T35 chain: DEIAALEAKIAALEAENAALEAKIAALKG

[36] = molecular target: T36, 4H2873-AA; experiment: two-hybrid library CCmax; settings: mean of both orientations
T36 chain: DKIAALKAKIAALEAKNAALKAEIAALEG

[37] = molecular target: T37, 4H2985-AA; experiment: two-hybrid library CCmax; settings: mean of both orientations
T37 chain: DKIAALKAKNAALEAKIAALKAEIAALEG

[38] = molecular target: T38, 4H3134-AA; experiment: two-hybrid library CCmax; settings: mean of both orientations
T38 chain: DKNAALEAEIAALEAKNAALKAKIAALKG

[39] = molecular target: T39, 4H3409-AA; experiment: two-hybrid library CCmax; settings: mean of both orientations
T39 chain: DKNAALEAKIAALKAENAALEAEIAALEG

[40] = molecular target: T40, 4H3625-AA; experiment: two-hybrid library CCmax; settings: mean of both orientations
T40 chain: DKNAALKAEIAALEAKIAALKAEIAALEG

[41] = molecular target: T41, 4H390-AA; experiment: two-hybrid library CCmax; settings: mean of both orientations
T41 chain: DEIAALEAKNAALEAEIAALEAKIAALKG

[42] = molecular target: T42, 4H3940-AA; experiment: two-hybrid library CCmax; settings: mean of both orientations
T42 chain: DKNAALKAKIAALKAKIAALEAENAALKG

[43] = molecular target: T43, 4H510-AA; experiment: two-hybrid library CCmax; settings: mean of both orientations
T43 chain: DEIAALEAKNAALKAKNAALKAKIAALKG

[44] = molecular target: T44, 4H775-AA; experiment: two-hybrid library CCmax; settings: mean of both orientations
T44 chain: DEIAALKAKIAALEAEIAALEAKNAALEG

[45] = molecular target: T45, 4H816-AA; experiment: two-hybrid library CCmax; settings: mean of both orientations
T45 chain: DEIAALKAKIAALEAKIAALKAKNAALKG

[46] = molecular target: T46, 4H87-AA; experiment: two-hybrid library CCmax
T46 chain: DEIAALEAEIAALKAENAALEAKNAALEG

[47] = molecular target: T47, P2bHq; experiment: two-hybrid library CCNG1
T47 chain: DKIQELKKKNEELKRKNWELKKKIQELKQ

[48] = molecular target: T48, P4bHq; experiment: two-hybrid library CCNG1
T48 chain: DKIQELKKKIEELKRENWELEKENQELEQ

[49] = molecular target: T49, P5bHq; experiment: two-hybrid library CCNG1
T49 chain: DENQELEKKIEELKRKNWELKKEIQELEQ

[50] = molecular target: T50, P6bHq; experiment: two-hybrid library CCNG1
T50 chain: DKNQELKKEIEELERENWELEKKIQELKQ

[51] = molecular target: T51, P7bHq; experiment: two-hybrid library CCNG1
T51 chain: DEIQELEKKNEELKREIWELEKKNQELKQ

[52] = molecular target: T52, P8bHq; experiment: two-hybrid library CCNG1
T52 chain: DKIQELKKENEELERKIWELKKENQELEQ

[53] = molecular target: T53, P9bHq; experiment: two-hybrid library CCNG1
T53 chain: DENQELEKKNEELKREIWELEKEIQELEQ

DELAAIEAEAAALEAEAAALEAEAAALEG [APC222-AA]
interaction score [1]: -2.62 | interaction score [2]: -1.71 | interaction score [3]: -1.53 | interaction score [4]: -1.83 | interaction score [5]: -1.8 | interaction score [6]: -2.32 | interaction score [7]: -2.15 | interaction score [8]: -1.59 | interaction score [9]: -1.93 | interaction score [10]: -1.62 | interaction score [11]: -0.292 | interaction score [12]: -1.41 | interaction score [13]: -1.61 | interaction score [14]: -1.75 | interaction score [15]: -1.82 | interaction score [16]: -2.08 | interaction score [17]: -1.23 | interaction score [18]: -1.91 | interaction score [19]: -1.62 | interaction score [20]: -2.39 | interaction score [21]: -1.94 | interaction score [22]: -1.79 | interaction score [23]: -1.74 | interaction score [24]: -1.69 | interaction score [25]: -1.82 | interaction score [26]: -1.68

DENAALKAKNAALKAEIAALEAEIAALEG [4H1985-AA]
interaction score [27]: -1.91 | interaction score [28]: -2.04 | interaction score [29]: 0.704 | interaction score [30]: -1.41 | interaction score [31]: 0.352 | interaction score [32]: -1.92 | interaction score [33]: -1.05 | interaction score [34]: 0.628 | interaction score [35]: -1.45 | interaction score [36]: -1.18 | interaction score [37]: -0.418 | interaction score [38]: -0.682 | interaction score [39]: -1.05 | interaction score [40]: -0.122 | interaction score [41]: 1.06 | interaction score [42]: -0.542 | interaction score [43]: -0.896 | interaction score [44]: -1.28 | interaction score [45]: -0.103 | interaction score [46]: -1.37

DKIQELKKKNEELKRKNWELKKKIQELKQ [P2bHq]
interaction score [47]: 0.693 | interaction score [48]: 0.0617 | interaction score [49]: 0.419 | interaction score [50]: 1.33 | interaction score [51]: 0.668 | interaction score [52]: 0.361 | interaction score [53]: -1.74
